Patent US20180305460A1 (Teva, published 2018)
Where a chain is given by its changes, count along the chain named. Names may count otherwise. Like-named read-outs stand apart in the source and are kept apart here.

Key:
[1] = target: T1, interferon-alpha/β receptor (IFNAR) (human, UniProt P17181); experiment: cell-based or functional assay
T1 sequence (receptor (subunits not named in the filing), looked up): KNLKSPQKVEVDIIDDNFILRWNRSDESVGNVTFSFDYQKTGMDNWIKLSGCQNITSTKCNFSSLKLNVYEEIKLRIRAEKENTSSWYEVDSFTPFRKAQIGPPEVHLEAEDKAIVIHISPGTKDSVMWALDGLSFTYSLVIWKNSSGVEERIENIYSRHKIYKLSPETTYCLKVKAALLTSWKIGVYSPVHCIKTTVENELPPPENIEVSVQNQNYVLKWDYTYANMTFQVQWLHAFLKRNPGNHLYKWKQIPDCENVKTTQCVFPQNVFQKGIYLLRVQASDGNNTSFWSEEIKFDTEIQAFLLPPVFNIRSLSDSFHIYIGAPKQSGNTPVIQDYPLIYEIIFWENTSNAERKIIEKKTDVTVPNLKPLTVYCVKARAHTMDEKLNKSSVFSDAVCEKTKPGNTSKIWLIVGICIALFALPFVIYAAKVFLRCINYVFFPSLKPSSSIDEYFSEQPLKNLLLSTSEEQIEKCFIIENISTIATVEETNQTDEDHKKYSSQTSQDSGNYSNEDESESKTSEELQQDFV

Human CD38 [2] = target: T2, Human CD38 (human, UniProt P28907 43-300); experiment: SPR (Biacore), the separate experiment in which X02.107 was evaluated
Human CD38 [3] = target: T2, Human CD38; experiment: SPR (Biacore), the experiment for all other antibodies of Table 7
[4] = target: T3, Human CD38 on CD38-positive myeloma cells (ARP-1, H929) (human, UniProt P28907 43-300); experiment: flow cytometry, ARP-1 cells (CD38-positive)
T3 construct: Endogenous CD38 on the human myeloma cell lines ARP-1 and H929, used in flow cytometry; also called NCI-H929

Human CD38 [5] = target: T2, Human CD38; experiment: SPR (Biacore), antibody from supernatant captured on Protein A, human CD38 injected, 1:1 fit
[6] = target: Human CD38 on CD38-positive myeloma cell lines ARP-1 and H929 (human, UniProt P28907 43-300); experiment: flow cytometry on ARP-1 cells, purified protein
Human CD38 [7] = target: T2, Human CD38; experiment: SPR (Biacore), antibody from supernatant captured on Protein A, human CD38 injected, 1:1 fit; remark: listed apart in the source
Human CD38 [8] = target: T2, Human CD38; experiment: SPR (Biacore), antibody from supernatant captured on Protein A, human CD38 injected, 1:1 fit; separate experiment in which X02.1 gave 2.7 × 10^-8
Human CD38 [9] = target: T2, Human CD38; experiment: SPR (Biacore), antibody from supernatant captured on Protein A, human CD38 injected, 1:1 fit; remark: listed apart in the source
[10] = target: T3, Human CD38 on CD38-positive myeloma …; experiment: flow cytometry, ARP-1 cells (CD38-positive); remark: listed apart in the source
[11] = target: Human CD38 (soluble analyte in the SPR assay) (human, UniProt P28907 43-300); experiment: SPR (Biacore), antibody captured on Protein A from supernatant, CD38 injected; weakest KD among the separate SPR experiments

B1: A02.6 (wt. IFN) (antibody)
chain 1: QLQLQESGPGLVKPSETLSLTCTVSGGSISSSSYYWSWIRQHPGKGLEWIGYIYYSGSTNYNPSLKSRVTISVDTSKNQFSLKLSSVTAADTAVYYCARVGGAGGWPMDVWGQGTTVTVSS
chain 2: QAVLTQPASLSASPGESARLTCTLPSDINVRYYNIYWYQQKPGSPPRYLLYYYSDSHKGQGSGVPSRFSGSKDVSTNSGILLISGLQSEDIATYYCMTWSSNGSGVFGGGTQLTVLG
- EC50; HEK-Blue IFN-alpha/β SEAP reporter (A630) on CD38-negative cells, the unit comes from the x axis 'IFN pM' [1]: 667 pM

B2: X02.1 (antibody, human IgG4 S228P)
heavy: not shown
VL: B1 chain 2 with I91E, T93D
notes: Human IgG4 S228P, not fused to IFN; also called parental antibody X02.1
- Kd (Human CD38 [2]): 27 nM
- Kd (Human CD38 [3]): 0.378 nM

B3: X02.8 (antibody, human IgG4 S228P)
heavy: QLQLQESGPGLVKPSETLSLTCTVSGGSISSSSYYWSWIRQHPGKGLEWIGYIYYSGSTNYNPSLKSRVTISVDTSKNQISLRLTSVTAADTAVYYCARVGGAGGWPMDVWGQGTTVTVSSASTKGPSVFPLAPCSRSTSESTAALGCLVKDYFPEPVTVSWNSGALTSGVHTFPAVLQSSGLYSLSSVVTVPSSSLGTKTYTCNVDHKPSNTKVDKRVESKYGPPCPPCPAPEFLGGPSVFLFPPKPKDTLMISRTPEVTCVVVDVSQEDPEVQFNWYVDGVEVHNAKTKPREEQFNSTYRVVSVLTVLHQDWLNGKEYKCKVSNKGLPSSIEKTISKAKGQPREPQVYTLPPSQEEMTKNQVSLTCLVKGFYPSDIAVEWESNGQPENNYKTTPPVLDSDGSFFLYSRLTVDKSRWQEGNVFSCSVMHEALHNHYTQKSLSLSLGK
VL: B1 chain 2 with I91E, T93D
notes: IgG4 S228P; VH L74S relative to X02.1
- EC50 [4]: 18.3 µg/mL
- Kd (Human CD38 [5]): 23 nM

B4: A02.1 (antibody)
heavy: B1 chain 1 with S76L, F80I, K83R, S85T
light: QAVLTQPASLSASPGESARLTCTLPSDINVRYYNIYWYQQKPGSPPRYLLYYYSDSHKGQGSGVPSRFSGSKDVSTNSGILLISGLQSEDEADYYCMTWSSNGSGVFGGGTQLTVLGQPKAAPSVTLFPPSSEELQANKATLVCLISDFYPGAVTVAWKADSSPVKAGVETTTPSKQSNNKYAASSYLSLTPEQWKSHRSYSCQVTHEGSTVEKTVAPTECS
notes: Anti-CD38 IgG4 fused to attenuated IFN-alpha2b A145D at the heavy chain C-terminus; also called X355/02-HC-L0-IFN-alpha (A145D) IgG4
- EC50 [6]: 1.45 µg/mL

B5: X02.71 (antibody, human IgG4 S228P)
heavy: not shown
VL: B1 chain 2 with I91E, T93D
notes: IgG4 S228P; VH I29V relative to X02.1
- Kd (Human CD38 [7]): 0.129 nM

B6: X02.107 (antibody)
heavy: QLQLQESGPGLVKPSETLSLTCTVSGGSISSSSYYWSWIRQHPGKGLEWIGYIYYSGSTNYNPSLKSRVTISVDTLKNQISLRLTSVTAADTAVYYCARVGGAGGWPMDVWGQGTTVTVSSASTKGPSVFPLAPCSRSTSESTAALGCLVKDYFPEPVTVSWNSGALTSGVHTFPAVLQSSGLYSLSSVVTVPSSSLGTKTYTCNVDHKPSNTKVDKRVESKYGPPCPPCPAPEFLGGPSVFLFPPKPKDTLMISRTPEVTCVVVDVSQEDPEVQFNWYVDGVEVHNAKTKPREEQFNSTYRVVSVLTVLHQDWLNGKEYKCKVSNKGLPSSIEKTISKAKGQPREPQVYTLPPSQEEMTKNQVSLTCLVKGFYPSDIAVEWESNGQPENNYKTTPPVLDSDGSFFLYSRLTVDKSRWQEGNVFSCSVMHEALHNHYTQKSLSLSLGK
VL: B1 chain 2
notes: IgG4 S228P with the X02.1 VH; VL E83I, D85T relative to A02.1
- Kd (Human CD38 [8]): 24.7 nM

B7: X02.76 (antibody, human IgG4 S228P)
heavy: not shown
VL: B1 chain 2 with I91E, T93D
notes: IgG4 S228P; VH M(100C)L relative to X02.1
- Kd (Human CD38 [9]): 0.000158 nM

B8: X02.77 (antibody, human IgG4 S228P)
heavy: not shown
VL: B1 chain 2 with I91E, T93D
notes: IgG4 S228P; VH D101E relative to X02.1
- Kd (Human CD38 [9]): 0.00911 nM

B9: X02.11 (antibody, human IgG4 S228P)
heavy: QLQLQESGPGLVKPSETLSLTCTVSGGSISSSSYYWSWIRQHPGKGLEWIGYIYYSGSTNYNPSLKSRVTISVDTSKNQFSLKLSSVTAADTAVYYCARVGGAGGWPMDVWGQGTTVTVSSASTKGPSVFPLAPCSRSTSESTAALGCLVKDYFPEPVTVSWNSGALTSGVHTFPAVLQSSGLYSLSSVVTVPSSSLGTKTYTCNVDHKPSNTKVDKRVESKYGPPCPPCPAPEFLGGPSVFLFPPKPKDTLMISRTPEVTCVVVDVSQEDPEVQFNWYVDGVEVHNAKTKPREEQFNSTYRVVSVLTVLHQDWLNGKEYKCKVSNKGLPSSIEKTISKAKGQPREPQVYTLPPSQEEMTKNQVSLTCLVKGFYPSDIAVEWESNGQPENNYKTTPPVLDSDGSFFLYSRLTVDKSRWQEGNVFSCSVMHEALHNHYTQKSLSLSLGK
VL: B1 chain 2 with I91E, T93D
notes: IgG4 S228P; VH L74S, I78F, R81K, T(82A)S relative to X02.1
- EC50 [4]: 18.1 µg/mL
- Kd (Human CD38 [5]): 23.9 nM

B10: X02.69 (antibody, human IgG4 S228P)
heavy: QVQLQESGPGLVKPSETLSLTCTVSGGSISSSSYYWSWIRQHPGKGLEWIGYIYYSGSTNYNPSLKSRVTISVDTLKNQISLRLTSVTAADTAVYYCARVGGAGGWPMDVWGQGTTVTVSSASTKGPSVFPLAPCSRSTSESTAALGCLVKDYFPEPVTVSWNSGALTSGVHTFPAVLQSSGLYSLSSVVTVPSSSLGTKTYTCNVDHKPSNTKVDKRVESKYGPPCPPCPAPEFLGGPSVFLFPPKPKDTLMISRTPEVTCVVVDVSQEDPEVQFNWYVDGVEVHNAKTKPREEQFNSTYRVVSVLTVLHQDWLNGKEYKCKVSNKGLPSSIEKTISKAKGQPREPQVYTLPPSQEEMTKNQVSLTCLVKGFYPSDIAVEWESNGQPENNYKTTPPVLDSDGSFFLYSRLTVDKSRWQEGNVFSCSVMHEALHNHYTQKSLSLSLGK
VL: B1 chain 2 with I91E, T93D
notes: IgG4 S228P; VH Q2V relative to X02.1
- EC50 [10]: 16.8 µg/mL
- Kd (Human CD38 [7]): 0.0368 nM

B11: X02.74 (antibody, human IgG4 S228P, V domains shown)
VH: B1 chain 1 with S76L, F80I, K83R, S85T, M108L, D109E
VL: B1 chain 2 with I91E, T93D
notes: IgG4 S228P; VH M(100C)L, D101E relative to X02.1
- Kd (Human CD38 [9]): 0.0685 nM

B12: X02.1 (antibody, human IgG4 S228P, lambda)
heavy: not shown
light: B4 light
notes: also called parental antibody X02.1; unfused form of A02.1 (X355/02)
- Kd [11]: 0.378 to 27 nM
